Laboratory results from article PMC7118133, “Dual functions of Aire CARD multimerization in the transcriptional regulation of T cell tolerance” (Nature Communications, 2020).
Numbering of substitutions follows the chain as printed. In names and notes the source's numbering stands.

B1: mouse Aire (mAire) CARD, wild type (domain or fragment, UniProt Q9Z0E3 1-105, looked up)
chain: MAGGDGMLRRLLRLHRTEIAVAIDSAFPLLHALADHDVVPEDKFQETLRLKEKEGCPQAFHALLSWLLTRDSGAILDFWRILFKDYNLERYSRLHSILDGFPKDV
notes: Autoimmune Regulator (Aire), mouse, CARD, aa 1-105, subcloned into pET50; Forms filaments after the NusA tag is cleaved off at the 3C site; also called WT mAire CARD; source: E. coli BL21(DE3), co-expressed with GroEL/ES + trigger factor, purified (Ni-NTA); tag cleaved with HRV 3C protease; not shown: His6-NusA-His6, N-terminal, cleaved
B2: mouse Aire (mAire) CARD R70A/D71A (domain or fragment, UniProt Q9Z0E3 1-105, looked up)
chain: B1 chain with R70A, D71A
notes: Autoimmune Regulator (Aire), mouse, CARD, aa 1-105, subcloned into pET50; The results print R70A/D71A, the methods R70A/R71A; also called R70A/R71A (so printed in the methods); source: E. coli BL21(DE3), co-expressed with GroEL/ES + trigger factor, induced at 25 °C for 4 h, purified (Ni-NTA; tag cleaved with HRV 3C protease); not shown: His6-NusA-His6, N-terminal, cleaved
B3: mouse Aire (mAire) CARD K53A/E54A (domain or fragment, UniProt Q9Z0E3 1-105, looked up)
chain: B1 chain with K53A, E54A
notes: Autoimmune Regulator (Aire), mouse, CARD, aa 1-105, subcloned into pET50; source: E. coli BL21(DE3), co-expressed with GroEL/ES + trigger factor, purified (Ni-NTA; tag cleaved with HRV 3C protease); not shown: His6-NusA-His6, N-terminal, cleaved
B4: mouse Aire (mAire) CARD K51A/E52A (domain or fragment, UniProt Q9Z0E3 1-105, looked up)
chain: B1 chain with K51A, E52A
notes: as for B3
B5: human Aire (hAire) CARD, wild type (domain or fragment, UniProt O43918 1-106, looked up)
chain: MATDAALRRLLRLHRTEIAVAVDSAFPLLHALADHDVVPEDKFQETLHLKEKEGCPQAFHALLSWLLTQDSTAILDFWRVLFKDYNLERYGRLQPILDSFPKDVDL
notes: Autoimmune Regulator (Aire), human, CARD, aa 1-106, subcloned into pET47; Construct His6-3C-hAire CARD; also called WT hAire CARD

Tests used:
[1] = biological target: the molecule itself; experiment: negative-stain electron microscopy; filament formation of purified mAire CARD variants after cleavage of the NusA tag with HRV 3C (4 °C, 16 h); diluted in TNE buffer (100 mM Tris pH 8, 50 mM NaCl, 10 mM EDTA) to ~50–200 µg/ml, uranyl formate stain; WT in Fig. 1b also denatured and refolded
[2] = biological target: the molecule itself; experiment: negative-stain electron microscopy; filament formation of purified hAire CARD variants refolded from 6 M GdHCl by dialysis (20 mM HEPES pH 7.5, 1 M KCl, 5 mM βME, 16 h, 4 °C) and kept at 4 °C for another 24 h; diluted in TNE buffer to ~50–200 µg/ml, uranyl formate stain

Protein	binding result [1]	binding result [2]
B1	binds	
B2	binds	
B3	binds	
B4	binds	
B5		binds
